From publication PMC2756588

T1: Hse1, P38753
T1 sequence (P38753 208-285, looked up): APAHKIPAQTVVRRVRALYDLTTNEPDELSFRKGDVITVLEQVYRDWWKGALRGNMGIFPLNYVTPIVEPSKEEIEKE

T2: Lsb3, P43603
T2 sequence (P43603 385-451, looked up): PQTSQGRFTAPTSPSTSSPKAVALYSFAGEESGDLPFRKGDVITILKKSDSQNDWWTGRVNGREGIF

T3: Pin3, Q06449
T3 sequence (Q06449 53-122, looked up): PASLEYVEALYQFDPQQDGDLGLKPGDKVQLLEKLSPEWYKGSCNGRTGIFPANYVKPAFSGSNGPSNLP

T4: Boi1, P38041
T4 sequence (P38041 1-86, looked up): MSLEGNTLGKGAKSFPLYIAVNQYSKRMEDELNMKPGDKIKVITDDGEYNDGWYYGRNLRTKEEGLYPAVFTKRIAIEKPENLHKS

T5: Boi2, P39969
T5 sequence (P39969 32-116, looked up): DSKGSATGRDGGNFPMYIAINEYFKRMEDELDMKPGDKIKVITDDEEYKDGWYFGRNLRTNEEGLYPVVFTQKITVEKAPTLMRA

T6: Nbp2, Q12163
T6 sequence (Q12163 103-180, looked up): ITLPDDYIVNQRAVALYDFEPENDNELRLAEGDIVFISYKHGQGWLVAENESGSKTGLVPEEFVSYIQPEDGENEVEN

T7: Myo5, Q04439
T7 sequence (Q04439 1072-1160, looked up): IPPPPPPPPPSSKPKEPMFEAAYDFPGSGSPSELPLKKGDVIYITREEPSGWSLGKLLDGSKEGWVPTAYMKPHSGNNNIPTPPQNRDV

T8: Lsb4, P32793
T8 sequence (P32793 402-468, looked up): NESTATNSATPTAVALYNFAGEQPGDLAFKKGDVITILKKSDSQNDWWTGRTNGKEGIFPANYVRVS

T9: Bud14, P27637
T9 sequence (P27637 247-328, looked up): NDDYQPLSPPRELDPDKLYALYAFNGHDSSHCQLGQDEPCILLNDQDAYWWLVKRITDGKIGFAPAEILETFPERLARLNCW

T10: Fus1, P11710
T10 sequence (P11710 432-512, looked up): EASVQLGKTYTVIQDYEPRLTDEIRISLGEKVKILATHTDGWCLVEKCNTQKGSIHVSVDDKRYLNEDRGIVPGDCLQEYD

T11: Pex13, P80667
T11 sequence (P80667 295-386, looked up): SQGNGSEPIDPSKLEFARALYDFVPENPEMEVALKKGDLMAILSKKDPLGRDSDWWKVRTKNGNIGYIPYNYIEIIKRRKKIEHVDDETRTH

T12: Abp1, P15891
T12 sequence (P15891 535-592, looked up): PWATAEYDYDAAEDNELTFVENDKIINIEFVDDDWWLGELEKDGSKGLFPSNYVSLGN

T13: Hof1, Q05080
T13 sequence (Q05080 590-669, looked up): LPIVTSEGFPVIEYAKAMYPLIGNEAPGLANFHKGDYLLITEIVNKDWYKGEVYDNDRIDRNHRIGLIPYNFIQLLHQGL

T14: Cdc25, P04821
T14 sequence (P04821 50-136, looked up): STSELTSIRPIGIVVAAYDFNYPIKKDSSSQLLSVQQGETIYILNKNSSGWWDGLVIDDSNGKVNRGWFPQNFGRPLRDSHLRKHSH

T15: Bbc1, P47068
T15 sequence (P47068 1-78, looked up): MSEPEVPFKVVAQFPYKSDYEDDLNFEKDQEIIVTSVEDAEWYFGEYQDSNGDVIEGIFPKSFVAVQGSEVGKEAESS

T16: Sla1-2, P32790
T16 sequence (P32790 60-140, looked up): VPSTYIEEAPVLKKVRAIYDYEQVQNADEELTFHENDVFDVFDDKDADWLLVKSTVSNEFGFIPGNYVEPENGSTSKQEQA

T17: Bzz1-2, P38822
T17 sequence (P38822 568-633, looked up): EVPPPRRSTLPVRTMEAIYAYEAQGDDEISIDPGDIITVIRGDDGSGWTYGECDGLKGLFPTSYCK

T18: Bzz1-1, P38822
T18 sequence (P38822 478-572, looked up): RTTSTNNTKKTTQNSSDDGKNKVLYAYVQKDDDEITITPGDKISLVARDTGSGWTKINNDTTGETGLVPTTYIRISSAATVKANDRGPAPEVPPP

T19: Cyk3, Q07533
T19 sequence (Q07533 1-83, looked up): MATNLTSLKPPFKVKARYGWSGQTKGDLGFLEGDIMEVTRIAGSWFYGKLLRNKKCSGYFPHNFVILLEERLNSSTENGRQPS

T20: Lsb1, P53281
T20 sequence (P53281 45-122, looked up): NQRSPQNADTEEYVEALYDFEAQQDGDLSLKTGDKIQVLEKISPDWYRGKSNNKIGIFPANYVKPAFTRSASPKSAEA

T21: Sla1-3, P32790
T21 sequence (P32790 344-424, looked up): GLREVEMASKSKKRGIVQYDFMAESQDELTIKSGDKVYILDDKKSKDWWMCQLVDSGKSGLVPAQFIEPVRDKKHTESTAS


Tests used:
Experiment in all cases: SPOT array
[1] = target: T1, Hse1, P38753; conditions: median of control spots 1727
[2] = target: T2, Lsb3, P43603; conditions: median of control spots 406
[3] = target: Rvs167, P39743; conditions: median of control spots 2707
Sequence of Rvs167, P39743 (P39743 419-482): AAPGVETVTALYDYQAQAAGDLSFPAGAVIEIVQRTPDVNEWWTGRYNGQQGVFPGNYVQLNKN

[4] = target: T3, Pin3, Q06449; conditions: median of control spots 2171
[5] = target: T4, Boi1, P38041; conditions: median of control spots 1162
[6] = target: T5, Boi2, P39969; conditions: median of control spots 1161
[7] = target: Sho1, P40073; conditions: median of control spots 1148
Sequence of Sho1, P40073 (P40073 287-367): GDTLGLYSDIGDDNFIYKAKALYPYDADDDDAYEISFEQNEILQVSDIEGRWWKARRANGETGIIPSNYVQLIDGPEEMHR

[8] = target: T6, Nbp2, Q12163; conditions: median of control spots 357
[9] = target: T7, Myo5, Q04439; conditions: median of control spots 471
[10] = target: T8, Lsb4, P32793; conditions: median of control spots 397
[11] = target: T9, Bud14, P27637; conditions: median of control spots 956
[12] = target: T10, Fus1, P11710; conditions: median of control spots 1200
[13] = target: Bem1-1, P29366; conditions: median of control spots 4282
Sequence of Bem1-1, P29366 (P29366 55-141): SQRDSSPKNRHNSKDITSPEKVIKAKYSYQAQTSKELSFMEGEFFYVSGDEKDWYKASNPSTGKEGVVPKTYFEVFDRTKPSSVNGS

[14] = target: T11, Pex13, P80667; conditions: median of control spots 1341
[15] = target: T12, Abp1, P15891; conditions: median of control spots 935
[16] = target: T13, Hof1, Q05080; conditions: median of control spots 4086
[17] = target: T14, Cdc25, P04821; conditions: median of control spots 969
[18] = target: T15, Bbc1, P47068; conditions: median of control spots 796
[19] = target: Myo3, P36006; conditions: median of control spots 468
[20] = target: T16, Sla1-2, P32790; conditions: median of control spots 712
[21] = target: GST; conditions: median of control spots 978
[22] = target: T17, Bzz1-2, P38822; conditions: median of control spots 4538
[23] = target: T18, Bzz1-1, P38822; conditions: median of control spots 4446
[24] = target: T19, Cyk3, Q07533; conditions: median of control spots 1451
[25] = target: T20, Lsb1, P53281; conditions: median of control spots 388
[26] = target: Bem1-2, P29366; conditions: median of control spots 4347
Sequence of Bem1-2, P29366 (P29366 139-227): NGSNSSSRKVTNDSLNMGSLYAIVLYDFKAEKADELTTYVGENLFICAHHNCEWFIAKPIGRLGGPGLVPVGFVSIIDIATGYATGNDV

[27] = target: T21, Sla1-3, P32790; conditions: median of control spots 5475

| SPOT intensity [1] | SPOT intensity [2] | SPOT intensity [3] | SPOT intensity [4] | SPOT intensity [5] | SPOT intensity [6] | SPOT intensity [7] | SPOT intensity [8] | SPOT intensity [9] | SPOT intensity [10] | SPOT intensity [11] | SPOT intensity [12] | SPOT intensity [13] | SPOT intensity [14] | SPOT intensity [15] | SPOT intensity [16] | SPOT intensity [17] | SPOT intensity [18] | SPOT intensity [19] | SPOT intensity [20] | Binder | other results |
| --- | --- | --- | --- | --- | --- | --- | --- | --- | --- | --- | --- | --- | --- | --- | --- | --- | --- | --- | --- | --- | --- |
| 0 | 257 | 1340 | 15 | 1 | 1 | 4 | 12 | 0 | 166 | 2 | 0 | 3 | 32 | 9 | 38 | 2 | 10 | 5 | 1 | IKTRSVPKIPSIESV | SPOT intensity [21]: 0; SPOT intensity [22]: 2; SPOT intensity [23]: 2; SPOT intensity [24]: 0; SPOT intensity [25]: 266; SPOT intensity [26]: 0; SPOT intensity [27]: 6 |
| 3 | 1 | 0 | 2 | 3 | 0 | 10 | 1 | 0 | 0 | 11 | 0 | 0 | 0 | 5 | 4 | 9 | 2 | 0 | 0 | NRARYLPQNPDIIAG | SPOT intensity [21]: 0; SPOT intensity [22]: 0; SPOT intensity [23]: 0; SPOT intensity [24]: 0; SPOT intensity [25]: 1; SPOT intensity [26]: 0; SPOT intensity [27]: 11 |
| 21 | 0 | 0 | 4 | 1 | 0 | 9 | 0 | 0 | 0 | 10 | 53 | 0 | 3 | 0 | 0 | 26 | 18 | 0 | 0 | LRWRHKFFLPAIAAI | SPOT intensity [21]: 0; SPOT intensity [22]: 0; SPOT intensity [23]: 1; SPOT intensity [24]: 4; SPOT intensity [25]: 0; SPOT intensity [26]: 1; SPOT intensity [27]: 24 |
| 72 | 0 | 0 | 7 | 4 | 2 | 51 | 12 | 0 | 0 | 12 | 145 | 0 | 7 | 41 | 15 | 50 | 51 | 6 | 0 | NFKRLLPRDPSEKSS | SPOT intensity [21]: 0; SPOT intensity [22]: 10; SPOT intensity [23]: 1; SPOT intensity [24]: 3; SPOT intensity [25]: 0; SPOT intensity [26]: 11; SPOT intensity [27]: 156 |
| 2 | 3 | 0 | 27 | 1 | 0 | 6 | 1 | 1 | 2 | 6 | 24 | 0 | 12 | 13 | 20 | 6 | 3 | 3 | 1 | RTIRKLPLMSLSEYF | SPOT intensity [21]: 0; SPOT intensity [22]: 0; SPOT intensity [23]: 2; SPOT intensity [24]: 1; SPOT intensity [25]: 15; SPOT intensity [26]: 0; SPOT intensity [27]: 19 |
| 0 | 0 | 2 | 2 | 3 | 1 | 35 | 0 | 1 | 4 | 14 | 16 | 0 | 3 | 23 | 0 | 20 | 1 | 3 | 0 | HVRRSILALPLGVLL | SPOT intensity [21]: 0; SPOT intensity [22]: 0; SPOT intensity [23]: 0; SPOT intensity [24]: 2; SPOT intensity [25]: 47; SPOT intensity [26]: 0; SPOT intensity [27]: 0 |
